Test results from patent CN114989297A (BEIJING KEY BIOTECHNOLOGY CO LTD, dated 2022).

B1: LM3F6单克隆抗体 (antibody, V domains shown)
VH: VKPGGSLKLSCAASSWAQYINTMSWVRQTPDKRLEWVAIISYYSRDKYYPDSVKGRFTISRDQDKQTLYLQMSSLKSEDTAMYYCPYTRPPVIWMTWGQGTTVTVS
VL: DLVMTQTAPSVPVTPGESVSISCRSTQGYCRKLVGDYLYWFLQRPGQSPQLLIYWHPNLASGVPDRFSGSGSGTAFTLRISRVEAEDVGVYYCLCCRCKSGGFGSGTKLEIK
B2: LM6G3单克隆抗体 (antibody, V domains shown)
VH: VKPGGSLKLSCAASITAQPSPRMSWVRQTPDKRLEWVAICFEKKIGLYYPDSVKGRFTISRDQDKQTLYLQMSSLKSEDTAMYYCEHEWWDEQVSPWGQGTTVTVS
VL: DLVMTQTAPSVPVTPGESVSISCRSTFKPWPKYEPLHLYWFLQRPGQSPQLLIYMWFNLASGVPDRFSGSGSGTAFTLRISRVEAEDVGVYYCMNACCYYRQFGSGTKLEIK

Target: T1, 单核细胞增生李斯特氏菌鞭毛蛋白免疫原 (Listeria monocytogenes, UniProt Q02551 1-287)
T1 construct: Native flagellin preparation concentrated by ultrafiltration, not a recombinant protein; purity beyond the 33 kD band is not described; also called 免疫原蛋白; 抗原
T1 sequence (looked up): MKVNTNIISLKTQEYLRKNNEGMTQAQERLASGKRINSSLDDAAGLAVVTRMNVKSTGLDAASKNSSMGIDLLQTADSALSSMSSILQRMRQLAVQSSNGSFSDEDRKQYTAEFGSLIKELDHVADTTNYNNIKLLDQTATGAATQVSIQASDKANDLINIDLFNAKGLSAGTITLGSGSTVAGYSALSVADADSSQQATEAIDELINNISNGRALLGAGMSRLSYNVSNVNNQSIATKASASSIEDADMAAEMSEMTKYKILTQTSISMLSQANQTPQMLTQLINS
Experiment: IAsys Plus optical biosensor, immunogen immobilised on CMD cuvette, antibody at 5 concentrations, FASTfit

| Binder | Kd [nM] |
| --- | --- |
| B1 | 2.46 |
| B2 | 8.73 |
